The target in assay [1] is T1, wild-type human sodium taurocholate cotransporting polypeptide (human NTCP) (human, UniProt Q14973 1-349).
T1 sequence: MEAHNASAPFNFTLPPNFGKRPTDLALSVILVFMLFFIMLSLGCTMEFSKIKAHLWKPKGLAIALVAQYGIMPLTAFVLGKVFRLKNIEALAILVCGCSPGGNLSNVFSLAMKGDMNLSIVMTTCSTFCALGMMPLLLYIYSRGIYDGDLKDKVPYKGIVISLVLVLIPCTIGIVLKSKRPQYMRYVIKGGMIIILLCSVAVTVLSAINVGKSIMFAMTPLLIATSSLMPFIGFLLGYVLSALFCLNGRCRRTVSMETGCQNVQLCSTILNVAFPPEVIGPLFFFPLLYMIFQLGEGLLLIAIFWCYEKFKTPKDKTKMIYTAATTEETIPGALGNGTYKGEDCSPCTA
In words: cell-based or functional assay.

Assay [2] has as its target T2, epitope region-containing peptide fragment (AFPPEVIGPLFFFPLLYMIFQLGEG-biotin) (C-terminal biotin).
T2 peptide: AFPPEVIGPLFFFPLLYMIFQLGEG
In words: SPR (BIAcore 2000, 25 C); antibody captured via anti-mouse IgG on CM5, peptide as analyte; 1:1 Langmuir fit.
Experimental: (§1) In short, a carboxymethylated dextran biosensor chip (CM5, BIAcore Inc.) was activated by N-ethyl-N′-(3-dimethylaminopropyl)-carbodiimide hydrochloride (EDC) and N-hydroxysuccinimide (NHS) in accordance with the provider's instruction. An anti-mouse IgG antibody was diluted with 10 mM sodium acetate (pH5.2) up to 30 μg/ml. The dilution was injected at a flow rate of 5 to 10 μl/minute such that the reaction unit (RU) of the protein bound became 9,000 to 14,000 RU. […] The diluted antibody was injected at a flow rate of 5 to 10 μl/minute such that the reaction unit (RU) of the protein bound became 9,000 to 14,000 RU. After injection of each of the anti IgG antibodies, 1 M ethanolamine was injected in order to block unreactive groups. […] To the chip, a solution of an epitope region-containing peptide fragment diluted with the running buffers at different concentrations was added at 25° C. at a flow rate of 10 μl/minute for 2 minutes.
(§2) Using simple one-to-one Langmuir binding model (BIAcore Evaluation software version 3.1) by fitting sensor grams of antigen-antibody association and dissociation at the same time, association rate (Ka) and dissociation rate (Kd) were calculated. A Kd/Ka ratio was calculated to obtain an equilibrium dissociation constant (KD).

Assay [3] deals with T2, epitope region-containing peptide …. In words: SPR (BIAcore 2000, 25 C); antibody captured via anti-human IgG on CM5, peptide as analyte; 1:1 Langmuir fit.
Experimental: as §1, §2

Values joined by “and” are separate entries in the source; they are usually repeats but may differ in a detail not shown here. Identical values can stand only once.

B1: N6HB426-20 antibody (antibody produced by hybridoma) (antibody, V domains shown)
VH: QVQLQQSGAELVKPGASVKLSCKASDFTFTEYTIHWIKQMSGQGLEWIGWFYPGSGDIKYSEKFKDKATLTADKSSSTVYMELNRLTSEDSAVYFCARHMRDFRGFYYGRFYFDYWGQGTTLTVSS
VL: EIVLTQSPAIMSASPGEKVTITCRASSSVSSSYLHWYQQKSGVSPKLWIYSTSNLASGVPARFSGSGSGTSYSLTINSVEAEDAATYYCQQYSGYRWTFGGGTTLEIKRA
notes: Mouse IgG purified from the hybridoma supernatant on Protein G; also called N6HB426-20 monoclonal antibody; N6HB426 antibody
Regarding B1, in assay [1], the “IC50, inhibition of HBV/NL pseudo-virus infection of HepG2-human NTCP cells” value was determined as 1.7 µg/mL; the “IC50, inhibition of infection with pseudo-HBV (NanoLuc)” value was 0.27 µg/mL and 1.8 nM; the “IC50, inhibition of live HBV infection of HepG2/NTCP-myc (HBs antigen level)” value lay in the range of 20 to 30 nM. For the same molecule, in assay [2], the Kd is 0.0388 nM, the koff amounted to 3.19e-08 s⁻¹ and the kon was 821 M⁻¹ s⁻¹.

B2: Recombinant N6HB426 human chimeric IgG4 antibody (antibody)
heavy: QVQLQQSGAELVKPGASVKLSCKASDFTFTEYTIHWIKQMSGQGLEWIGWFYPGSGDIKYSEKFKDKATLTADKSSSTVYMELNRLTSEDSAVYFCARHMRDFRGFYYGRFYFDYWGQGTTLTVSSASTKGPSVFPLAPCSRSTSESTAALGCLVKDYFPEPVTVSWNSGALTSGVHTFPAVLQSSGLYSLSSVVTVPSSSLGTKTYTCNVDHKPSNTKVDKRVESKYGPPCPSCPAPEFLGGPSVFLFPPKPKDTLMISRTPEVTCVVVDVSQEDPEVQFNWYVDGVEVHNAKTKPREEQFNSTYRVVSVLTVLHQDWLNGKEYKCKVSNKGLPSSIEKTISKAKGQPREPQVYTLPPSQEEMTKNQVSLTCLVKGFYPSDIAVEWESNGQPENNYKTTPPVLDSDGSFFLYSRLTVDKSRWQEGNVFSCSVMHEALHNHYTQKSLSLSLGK
light: EIVLTQSPAIMSASPGEKVTITCRASSSVSSSYLHWYQQKSGVSPKLWIYSTSNLASGVPARFSGSGSGTSYSLTINSVEAEDAATYYCQQYSGYRWTFGGGTTLEIKRTVAAPSVFIFPPSDEQLKSGTASVVCLLNNFYPREAKVQWKVDNALQSGNSQESVTEQDSKDSTYSLSSTLTLSKADYEKHKVYACEVTHQGLSSPVTKSFNRGEC
notes: also called Recombinant N6HB426 human chimera IgG4 antibody; human chimeric antibody
Regarding B2, the “IC50, inhibition of HBV/NL pseudo-virus infection of HepG2-human NTCP cells” value in assay [1] amounted to 1.7 µg/mL. In assay [3], this molecule registered a Kd of 0.129 nM, a koff of 1.73e-07 s⁻¹ and a kon of 1340 M⁻¹ s⁻¹.

B3: Recombinant N6HB426 mouse IgG2a antibody (antibody)
heavy: QVQLQQSGAELVKPGASVKLSCKASDFTFTEYTIHWIKQMSGQGLEWIGWFYPGSGDIKYSEKFKDKATLTADKSSSTVYMELNRLTSEDSAVYFCARHMRDFRGFYYGRFYFDYWGQGTTLTVSSAKTTAPSVYPLAPVCGGTTGSSVTLGCLVKGYFPEPVTLTWNSGSLSSGVHTFPALLQSGLYTLSSSVTVTSNTWPSQTITCNVAHPASSTKVDKKIEPRGPTIKPCPPCKCPAPNLLGGPSVFIFPPKIKDVLMISLSPIVTCVVVDVSEDDPDVQISWFVNNVEVHTAQTQTHREDYNSTLRVVSALPIQHQDWMSGKEFKCKVNNKDLPAPIERTISKPKGSVRAPQVYVLPPPEEEMTKKQVTLTCMVTDFMPEDIYVEWTNNGKTELNYKNTEPVLDSDGSYFMYSKLRVEKKNWVERNSYSCSVVHEGLHNHHTTKSFSRTPGK
light: EIVLTQSPAIMSASPGEKVTITCRASSSVSSSYLHWYQQKSGVSPKLWIYSTSNLASGVPARFSGSGSGTSYSLTINSVEAEDAATYYCQQYSGYRWTFGGGTTLEIKRADAAPTVSIFPPSSEQLTSGGASVVCFLNNFYPKDINVKWKIDGSERQNGVLNSWTDQDSKDSTYSMSSTLTLTKDEYERHNSYTCEATHKTSTSPIVKSFNRNEC
notes: this is left out as a signal peptide; also called Recombinant mouse IgG2a antibody; N6HB426-20-IgG2a antibody
In the case of B3, in assay [2], the Kd came out at 0.313 nM, the koff amounted to 2.39e-07 s⁻¹ and the kon is 762 M⁻¹ s⁻¹.
